In the supplement of paper PMC10567573:

B1: ZNF232 (parent)
chain: FPKSEQVYLHFLSVVTEDGPEPKD

Variants of: B1
Experiment: protein stability index of a GFP-peptide fusion (GPS, HEK-293T) (PSI 1-6); higher = more stable
Conditions: c terminus: a fixed tail appended
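Note: lentivirally expressed fusions sorted by FACS into six bins by GFP to DsRed ratio, PSI derived from sequencing read proportions per bin multiplied by bin number.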

Protein stability index: each site, then its substitutions
V14: T 2.23, M 2.37, E 3, H 2.34, S 1.97, I 3.05, G 2.68, C 1.92, R 2.45, L 2.86, D 3.72, P 3.14, Y 3.58, F 2.18, N 3.09, Q 2.82, W 1.29, K 2.29
P22: I 2, R 1.9, N 2.37, T 2, G 1.75, S 1.81, W 1.83, D 3.31, F 1.67, Q 1.75, H 2.39, K 1.67, C 1.34, L 2.63, Y 1.25, A 1.85, E 1.94
G19: L 1.93, R 2.45, E 2.43, Q 2.49, H 2.32, V 1.5, S 2.27, T 2.34, K 2.71, C 1.95, I 1.9, F 1.54, P 2.21, Y 1.33, D 2.06, A 2.33, M 2.05, N 2.69, W 1.47
F11: N 3.18, G 3.61, S 2.65, R 2.83, M 2.06, L 2.41, A 2.49, Y 2.29, P 3.74, T 2.27, H 2.99, W 2.08, E 4.55, K 3.17, C 1.76, D 3.73
D18: H 2.46, M 1.01, N 1.71, G 2.32, F 3.47, R 1.47, T 1.76, Q 1.77, K 1.58, P 1.94, A 1.73, L 2.61, V 1.23, Y 1.24, S 1.33
P20: L 1.71, I 2.25, F 1.44, V 1.76, T 2.72, K 2.47, G 2.5, D 2.53, R 2.15, M 2.11, H 2.28, C 1.93, A 3.42
H10: R 4.1, P 1.94, K 2.73, Q 2.36, C 2.81, I 1.26, E 3.46, S 1.95, D 3.04, M 2.65, G 2.24, A 3.29, V 1.94
Y8: C 2.49, W 2.2, F 1.88, T 2.13, I 2.27, P 3.14, E 3.09, A 2.46, H 2.31, L 2.14, Q 3.33, D 3.55, V 1.98, N 2.01, G 2.15
S13: H 1.81, P 2.14, M 1.96, T 1.78, E 2.98, D 3.54, F 1.66, G 1.5, Y 3.15, A 1.89, N 2.46, Q 1.53, C 2.31, L 1.76, K 2.48, R 1.98
L9: P 2.58, F 1.73, W 1.71, R 2.11, E 3.54, Y 2.53, I 1.83, Q 2.78, H 2.53, V 1.71, T 2.62, K 2.5, M 1.29, S 2.32
L12: W 1.21, V 2.48, F 1.73, C 2.07, Q 3.99, G 3.24, S 2.75, H 3.49, I 1.97, K 3.6, M 3.84, E 3.96, D 3.67, P 2.34, T 2.58, N 3.61
E5: Q 1.9, A 2.29, W 2.02, V 2.58, K 3.34, S 1.7, L 2.47, T 1.59, D 2.84, H 2.31, I 2.23, F 2.35, C 1.65, P 1.75, M 2.04, G 1.61, Y 1.19
T16: V 1.81, S 2.31, H 2.68, C 2.47, W 1.89, A 2.31, Y 2.07, L 1.85, N 2.42, I 2.19, Q 1.87, P 3.37, K 2.77, F 1.63, E 2.38, D 2.26
Q6: D 2.87, V 1.21, M 1.6, H 1.88, A 2.3, Y 1.47, R 1.85, L 2.18, I 2.23, C 2.19, P 1.92, T 2.37, N 2.07, F 1.9, E 2.6, K 1.86, S 1.41
V15: I 1.89, E 3.1, K 2.27, T 2.1, D 3.45, S 2.47, F 2.44, N 2.36, W 1.47, P 2.08, H 2.4, Y 2.43, M 2.88, C 1.72, R 3.32
E21: T 2.06, Q 1.71, L 1.91, Y 1.68, H 2.02, I 2.33, C 1.91, F 3.2, R 1.79, P 1.91, D 2.02, K 2.07, V 2.97, W 1.7, A 2.71, S 2.26, M 2.04, N 2.12
V7: K 3.21, R 2.49, L 2.32, M 3.74, I 1.97, C 1.63, P 2.97, A 2.2, E 2.8, Q 1.88, D 1.91, T 2.1, H 1.61, F 1.68, S 2.59, N 2.27, Y 1.02
E17: L 1.56, N 1.66, R 1.88, K 2, Q 1.8, S 1.65, M 2.51, Y 2.15, I 1.77, T 2.08, F 2.38, A 3.57, W 4.03, P 1.99, D 2.62
P2: T 2.68, M 2.28, Q 2.14, V 2.26, Y 2.89, N 2.8, L 2.29, W 2.44
K23: A 2.66, C 2.07
K3: L 3.27, P 2.46, A 2.85, G 3.07, N 2.71, T 2.75, M 2.69, E 3.36, C 2.51, I 2.23, W 1.95, H 2.09, Q 2.12, D 2.35, F 2.61, S 2.7, V 2.33, Y 2.02
S4: H 2.26, V 1.61, P 1.95, Y 3.17, N 3.06, Q 2.29, K 1.89, T 2.34, L 1.78, D 2.24, E 2.95, M 2.35, W 2.14, I 2.58, F 2.49, A 1.77, R 1.66, C 1.74, G 1.66
